From doi:10.1101/2022.04.11.487882

Target: receptor-binding domain (RBD) of the SARS-CoV-2 spike (S) protein S1 region, His-tagged (SARS-CoV-2) (UniProt P0DTC2)
Assay: SPR

Row | Substance | Kd [nM] | koff [s⁻¹] | kon [M⁻¹ s⁻¹]
1 | recombinant human integrin αvβ3 (from UniProt P06756 31-1048; P05106 27-718) (complex) | > 500 | – | –
2 | recombinant human integrin αvβ6 (from UniProt P06756 31-1048; P18564 22-709) (complex) | 230 | 0.0236 | 84000
